Measurements published in US20200179497.

Biological target: IVIg (Octagam)

B1: pCART203 (protein)
chain: MDDYQRNATEAYAKEVPHQITSVWTKGVTPPEQFTQGEDVIHAPYLAHQGWYDITKAFDGKDNLLCGAATAGNMLHWWFDQNKTEIEAYLSKHPEKQKIIFNNQELFDLKAAIDTKDSQTNSQLFNYFRDKAFPNLSARQLGVMPDLVLDMFINGYYLNVFKTQSTDVNRPYQDKDKRGGIFDAVFTRGDQTTLLTARHDLKNKGLNDISTIIKQELTEGRALALSHTYANVSISHVINLWGADFNAEGNLEAIYVTDSDANASIGMKKYFVGINAHGHVAISAKKIEGENIGAQVLGLFTLSSGKDIWQKLSGGGHHHHHH
  cleavage efficacy on SDS-PAGE, fold vs IdeS: a 2 fold increased efficacy compared to IdeS
  enzyme concentration at which IgG cleavage is seen on SDS-PAGE: demonstrates IgG cleavage at 0.5 ng/ml (lane 7)

B2: pCART208 (protein)
chain: MDDYQRNATEAYAKEVPHQITSVWTKGVTPPEQFTQGEDVIHAPYLAHQGWYDITKAFDGKDNLLCGAATAGNMLHWWFDQNKTEIEAYLSKHPEKQKIIIRNQELFDLKAAIDTKDSQTNSQLFNYFRDKAFPNLSARQLGVMPDLVLDMFINGYYLNVFKTQSTDVNRPYQDKDKRGGIFDAVFTRGDQTTLLTARHDLKNKGLNDISTIIKQELTEGRALALSHTYANVSISHVINLWGADFNAEGNLEAIYVTDSDANASIGMKKYFVGINAHGHVAISAKKIEGENIGAQVLGLFTLSSGKDIWQKLSGGGHHHHHH
  cleavage efficacy of the 1st heavy chain on SDS-PAGE, fold vs IdeS: approximately a 4 fold increase in cleavage efficacy of the 1st heavy chain

B3: BX1001865 (IdeS lacking tag, produced to GMP standard) (protein)
chain: DSFSANQEIRYSEVTPYHVTSVWTKGVTPPANFTQGEDVFHAPYVANQGWYDITKTFNGKDDLLCGAATAGNMLHWWFDQNKDQIKRYLEEHPEKQKINFNGEQMFDVKEAIDTKNHQLDSKLFEYFKEKAFPYLSTKHLGVFPDHVIDMFINGYRLSLTNHGPTPVKEGSKDPRGGIFDAVFTRGDQSKLLTSRHDFKEKNLKEISDLIKKELTEGKALGLSHTYANVRINHVINLWGADFDSNGNLKAIYVTDSDSNASIGMKKYFVGVNSAGKVAISAKEIKEDNIGAQVLGLFTLSTGQDSWNQTN
  enzyme concentration at which cleavage starts on SDS-PAGE: IdeS, which starts the cleavage at 0.9 ng/ml (lane 6) and has a dominating scIgG band at 1.9 ng/ml (lane 5)

B4: pCART124 (IdeS with additional N terminal methionine and histidine tag) (protein)
chain: MDSFSANQEIRYSEVTPYHVTSVWTKGVTPPANFTQGEDVFHAPYVANQGWYDITKTFNGKDDLLCGAATAGNMLHWWFDQNKDQIKRYLEEHPEKQKINFNGEQMFDVKEAIDTKNHQLDSKLFEYFKEKAFPYLSTKHLGVFPDHVIDMFINGYRLSLTNHGPTPVKEGSKDPRGGIFDAVFTRGDQSKLLTSRHDFKEKNLKEISDLIKKELTEGKALGLSHTYANVRINHVINLWGADFDSNGNLKAIYVTDSDSNASIGMKKYFVGVNSAGKVAISAKEIKEDNIGAQVLGLFTLSTGQDSWNQTNGGGHHHHHH
  enzyme concentration at which cleavage starts on SDS-PAGE: IdeS, which starts the cleavage at 0.9 ng/ml (lane 6) and has a dominating scIgG band at 1.9 ng/ml (lane 5)
